From the nanobody polyreactivity screen of Harvey et al. (2022)

Test: yeast display, Sf9 membrane polyspecificity reagent, FACS + sequencing; frameworks hold sequencing errors
Summary of the method: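 Using colony PCR, genes from sorted yeast display clones were amplified, then sequenced on MiSeq at 2 × 250 and filtered by CDR length. The clones had been stained with 10% biotinylated, detergent-solubilized Sf9 membrane reagent for 1 hour at 4 °C and sorted by FACS into low and high (top ~1%) gates on anti-HA and streptavidin fluorescence. Polyreactivity labels come from the gate of origin.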

Sequence | polyreactivity (PSR sort gate)
QVQLVESGGGLVQAGGSLRLSCAASGFTLLGNTMGWSRQAPGKERELVAAIRTNSGRTYYADSVKGRFTISRDNAKNTVYLQMNSLKPEDTAVYYCNAQSYRSDSAYHYNYDYWGQGTQVTVSS | high polyreactivity
QVQLVESGGGLFQAGGSILLSCPASGSTFDNYSMGWYRQAPGKERELVAGISWSGGSTFYADSVKGRFTISRDNAKYTVYLQMNSLKTEDTAVYYCAARIRYLDVRDNDNYYWGQGTQVTVSS | low polyreactivity
QVQLVESGGGLVQAGGSLRLSCAASGSIFTLNAMGWYRQAPGKERELVAAISRSGGSTYYADSVKGRFTISRDNAKNTVYLQLNSLKPEDTAVYYCAVYVTRDSGWWLYDYWGQGTQVTVSS | high polyreactivity
QVQLVESGGGLVQAGGSLRLSCAASGSIFSGYAMGWYRQAPGKERELVAAITGGGSTNYADSVKGRFTISRDNAKNTVYLQMTSLKPEDTAVYYCAAAPVSLPDYGYWGQGTQVTVSS | low polyreactivity
QVQLVESGGGLVQAGGSLRLSCAASGRTYGRNAMGWYRQEPGKDRELVASITKRGGSTYYADSVKGRFTISRDNAKNTVYLQMNSLKPEDTAVYYCAVEAYDYWGQGSQVTVSS | high polyreactivity
QVQLHESAGGLVQAGGSLRLRCSASGYISCDASRGWYRQAPGKERELAASITKGSSTNYADSVKGRFTIRDNAKNTVYLQMNRLKPEDTAVCYCAVTYPYWGDYTYWGQGTQVTVSS | low polyreactivity
QVQLVESGGGLVQAGGSLRLSCAASGRTFYNYAMGWYRQAHGKERELVAAIDWGSDSTYYADYVKGRFTISRDNANNTVYLQMNRLKPEDTAVYYCAAYLVSVNSRTYDYWGQGTQVTVSS | low polyreactivity
QVQLVESGGGLVQAGGSLRLSCAASGFIFYDYAMGWYRQAPGKEREMVAGITDSGGSTSYADSVKGRFTISRDNAKNTVYLQMNSLKPEDTAVYYCAADNYVRAGINYDYWGQGTQVTVSS | low polyreactivity
QVQLVESGGGLVQAGGSLRLSCAASGFIFPNYAMGWYRQAPGKVRELVAAISVRGGNTYYADSVKGRFTISRDNAKNTVYLQMNSLKPEDTAVYYCNAVLRSGYFPEYYYWGQVTQVTVSS | high polyreactivity
QVQLVESVGGLVQAGGSLRLSCAASGSTFYHYAMGWYRQAPGKVRELVASISHSGGRTFYADSVKGRFTISRDNAMNTVYLQMNSLKPEDTAVYYCAADWRTRYDYWGQGTQVTVSS | low polyreactivity
QVQLVESGGGLVQAGGRLRLSCAASGRIFAKNAMGWYRQAPGKERELVAAISGSGGSTYYADSVKGRFTISRDNAKNTVYLQMNSMKPDDTAVYYCAATRGPNYRNGYWGQGTQVTVSS | high polyreactivity
QVQLVESGGGLVQAGGRLRLSCAASGITFWSNALGWYRQAPGKERELVAAMTSGGNTNYADSVKGRFTISRDNAKNTVYLQMNSLKPEDTAVYYCATKQLLRRRQGYYWVGSKHDYWGQGTQVTVSS | high polyreactivity
QVQLVESGGGLVQAGGSLRLSCAASGSTFPLYAMGWYRQAPGKERELVAAITGGGGRTYYADSVKGRFTISRDNAKNTVYLQMNSLKPEDTAVYYCATDSFGYDWYWGQGTQVTVSS | low polyreactivity
QVQLVESGGGLVQAGGSLRLSCAASGSTFIVNAMGWYRQAPGKERELVAAIRRGTRTNYADSVKGRFTISRDNAKNTVYLQMNSLKPEDTAVYYCAVRGSYRGWYDYWGQGTQVTVSS | high polyreactivity
QVQLVESGGGLVQAGGSLRLSCAASGRIFDYNGMGWYRQAPGKERELVAAIRLSDGSTYYADSVKGRFTISRDNAKNTVYLQMNSQKPEDTAVYYCADVGKNRSWYDYWGQGSQVTVSS | high polyreactivity
QVQLVESGGGLVQAGGSLRLTCAASGFIFGYNAMGWYRQAPGKERELVAAISSSGGSTYYADSVKGRFTISRDNAKNTVSLQMNSLKPEDTAVYYCAARPVALRKYDYWGQGTQVTVSS | low polyreactivity

Sequence | polyreactivity (PSR sort gate)
QVQLVESGGGLVQAGGSLRLSCAASGRTFVVYAMGWYRQAPGKERELVAAISGRGGRTYYADSVKGRFTISRDNAKNTVYLQMNSLKPEETAVYYCATRSSVPKRFTRYGYWGHGTQVTVSS | high polyreactivity
QVQLVESGGGLVQEGGSLRLSCASSGGIFDTNAKGWYRQARGKDREFVAAITGSGGSTYYADSVKGRFTISRDNAKNTVYLQMNSLIPEDTAVYYCAAPLSYYWVYIVRDGYDYWGQGTQVTVSS | low polyreactivity
QVQLVQSGGGLVQAGGSLRLSCAASGSIFGYYAMGWYRQAPGKERELVAVITSVATTNYADSVKGRFTISRDNAKNTVYLQMNSLKPEDTAVYYCAARPQVKRGRYGYWGQGTQVTVSS | low polyreactivity
QVHLVESAGGLVQAGGSLRLSCDASGRTFYPNAMGWYRQKHGQERELVAGIRSSGESTYYEDSVKGRFTISRDNAKTTVYLQMNSLKQEDTAVYYGIRDLTPSYDFWGQGSQVTVSS | low polyreactivity
QVQLVESGGGLVQAGGSLRLSCAASGSIFDSNTRGWYRQAPGKERELVAAINWSGGRTYYADSVKGRFTISRDNPNNTVYLQMNSLKPEDTAVYYCARPSYYATYYPQPFGYNYWGQGTQVTVSS | high polyreactivity
QVQLVESGGGLVQAGGSLRLSCAASGFTFGHYARGWSRQAPGKERELVAAISRSGGTTSYADSVKGRFTISRDNAKNTVYLQMNSLKTEDTAVYYCNKDYIWARYGGGRDYWGQGTQVTVSS | low polyreactivity
QVQLVESGGGLVQAGGSLRLSCAASGRTFSKNAMGWYRQAPGKERELVAAISWSGGRTYYADSVKGRFTISRDNAKNTVYLQMNSLKPEDTAVYYCNAYYPGNGPRSTSTRYEYWGQGTQVTVSS | high polyreactivity
QVQLVESGGGLVQAGGSLRLSCAASGSTFYGYTMGWYRQATGKERELVAVITYGGSTYYADSVKGRFTISRDNAKNTVYLQMNSLKPEDTAVYYCAKRYAYPAYGRPWRIGRTYDYWGQGTQVTVSS | low polyreactivity
QVQLVESGGGLVQAGGSLRLSCAASGSTFWYYDMGWYRQAPGQERALVAASTSGGRTNYADSVKGRVTISRDKAKNTVYLQMNSLKPEDTAVYYCARTSYRFYRKRYYWGQGTQVTVSS | high polyreactivity
QVQLVESGGGLVQAGGSLRLSCAASGLTFTYYALGWYRQAPGKERELVAAISSSGSDTYYADSVKGRFTISRDNAKNTVYLQMNSLKPEDTAVYYCAAVLTGLSPDFEYEYWGQGTQVTVSS | low polyreactivity
QVQLVESGGGLVQAGGSLRLTCAASGRTFRSYAMGWYRQAPGKERELVAAISDGGSTNYADSVKGRFTISRDNAKNTVYLQMNSLKPEDTAVYYCAAEIFFAVFRFYYWGQGTQVTVSS | low polyreactivity
QVQLVESGGGLVQAGGSLRLTCAASGSIFVNNAMGWYRQAPGKERELVAAISSRSSRTFYADSVKGRFTISRDNAKNTVYLQMNSLKPEDTAVYYCAVKKRAPDGDYWGQGTQVTVSS | high polyreactivity
QVQQVESGGGLVQAGGSLRLSCAATGRTFALYAMGWYRLAPGKERELVAGITFRGGSTYYADSVKGRFTISRDNAKNTVYLQMNSLKPEDTAVYYCAAERWRWYYSWTMDYWGQGTQVTVSS | high polyreactivity
QVQLVESGGGLVQAGGSLRLSCAASGFIFVLYAMGWYRQAPRKERELVAAISRGGSSTYYADSVKGRFTISRDNAKNTVYLQMNSLKPEATAVYYCAARIRNWPAMDYWGQGTQVTVSS | high polyreactivity
QVQLVESGGGLVQAGGSLRLSCAASGSPFKRYAMGWYRQAPGKERELVASITRRGGSTYYADSVKGRFTISRDNAKNTVYLKMNSLKPEDSAVYYCAALQGRSSARQDSYGYWGQGTQVTVSS | high polyreactivity
QVQLVESGGGIVQAGGSLRLSSAASGITFGANAMGWYRQAPGKERELVADITWSGGDTYYADSVKGRFTSSRDNAKNSVYLQMNSLKPEDTAVYYCNALQPGLGSPLGEYDYWGQGTQVTVSS | low polyreactivity
